In patent publication US20240239894A1, “THERAPEUTIC BINDING MOLECULES” (MedImmune Limited, priority 2020, published 2024):
Where two headings read alike, the source gives them in different places.

T1: MurineB7-H4 (Mus musculus, UniProt Q7TSP5)
T1 construct: Mouse B7H4 ECD; FLAG (C); 10His (C); made in house
T1 sequence (Q7TSP5 25-257 limits assumed): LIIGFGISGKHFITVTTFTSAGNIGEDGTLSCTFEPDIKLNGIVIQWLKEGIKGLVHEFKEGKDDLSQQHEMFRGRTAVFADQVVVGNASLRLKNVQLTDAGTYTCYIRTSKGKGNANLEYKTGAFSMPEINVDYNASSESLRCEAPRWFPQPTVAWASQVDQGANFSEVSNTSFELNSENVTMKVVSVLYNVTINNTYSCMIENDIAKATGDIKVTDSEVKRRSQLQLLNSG

T2: HumanB7-H4 (Homo sapiens, UniProt Q7Z7D3)
T2 construct: Human B7H4 ECD; FLAG; 10His; made in house
T2 sequence (Q7Z7D3 25-259 limits assumed): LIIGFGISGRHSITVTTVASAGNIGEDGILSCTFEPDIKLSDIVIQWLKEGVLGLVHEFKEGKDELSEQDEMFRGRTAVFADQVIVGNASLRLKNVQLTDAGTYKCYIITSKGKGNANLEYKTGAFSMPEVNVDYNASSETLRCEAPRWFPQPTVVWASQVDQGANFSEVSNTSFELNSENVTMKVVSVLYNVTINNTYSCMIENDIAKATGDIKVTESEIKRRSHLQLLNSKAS

T3: monomeric B7-H4-FLAG (Homo sapiens, UniProt Q7Z7D3)
T3 construct: 10His; made in house
T3 sequence (Q7Z7D3 25-259 limits assumed): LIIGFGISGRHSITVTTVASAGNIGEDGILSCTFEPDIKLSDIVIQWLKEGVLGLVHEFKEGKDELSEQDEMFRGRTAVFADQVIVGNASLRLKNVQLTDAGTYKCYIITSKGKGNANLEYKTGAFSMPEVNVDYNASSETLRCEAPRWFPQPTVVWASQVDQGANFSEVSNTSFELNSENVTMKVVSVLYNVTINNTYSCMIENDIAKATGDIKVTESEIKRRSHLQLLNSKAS

T4: recombinant mouse B7-H4 (Mus musculus, UniProt Q7TSP5)
T4 sequence (Q7TSP5 25-257): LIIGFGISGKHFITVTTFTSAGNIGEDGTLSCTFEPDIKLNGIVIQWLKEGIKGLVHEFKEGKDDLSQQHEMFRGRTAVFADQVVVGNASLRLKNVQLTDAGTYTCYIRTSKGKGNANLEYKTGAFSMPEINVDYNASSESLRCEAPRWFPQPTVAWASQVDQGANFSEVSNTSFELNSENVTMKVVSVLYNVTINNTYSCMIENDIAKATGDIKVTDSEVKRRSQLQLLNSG

B1: ZY0EP0-C07: anti-B7-H4 antibody clone, VH SEQ ID NO: 39, VL SEQ ID NO: 40 (antibody, V domains shown)
VH: QVQLVESGGVLVKPGGSLRLSCAASGFTLSDYYMSWIRQAPGMGLEWVSYISSSGSTIYYTDSVKGRFTISRDSAKNSLYLQMNSLRAEDTAVYYCARDGVGFDYWGQGTLVTVSS
VL: EIVLTQSPGTLSLFPGERATLSCRASQSVSSSYLAWYQQKPGQSPRLLIYAASSRATGIPDRFSGSGSGTDFTLTISRLEPEDFAVYYCQQYGSSPLYTFGQGTKLEIK
B2: ZY0EQD-E02: anti-B7-H4 antibody clone, VH SEQ ID NO: 33, VL SEQ ID NO: 34 (antibody, V domains shown)
VH: QVQLQQWGAGLLKPSETLSLTCAVYGGSFSGYYWNWIRQPPGKGLEWIGEINHSGSTSYNPSLKSRVTISVDTSKNQFSLKLSSVTAADTAVYYCARVLYNWNVDSWGQGTLVTVSS
VL: DIQMTQSPSSLSASVGDRVTITCRASQDIRNDVGWYQQKPGKAPKRLIYAASRLQSGVPSRFSGSGSGTEFTLTISSLQPEDFATYYCLQHNSYPRTFGQGTKVEIK
B3: ZY0EPQ-E02: anti-B7-H4 antibody clone, VH SEQ ID NO: 31, VL SEQ ID NO: 32 (antibody, V domains shown)
VH: QVQLQQWGAGLLKPSETLSLTCAVYGGSFSGYYWNWIRQPPGKGLEWIGEINHSGSTNYNPSLKSRVTILVDTSKNQFSLKLSSVTAADTAVYYCARNLYNWNLDSWGQGTLVTVSS
VL: DIQMTQSPSSLSASVGDRVTITCRASQGIRNDLGWYQQKPGRAPKRLIYVASSLQSGVPSRFSGSGSGTEFTLTISSLQPEDFATYYCLQHNSYPRTFGQGTKVEIK
B4: E02-INT Fab: antigen binding fragment of anti-B7-H4 antibody E02-INT (antibody, V domains shown)
VH: QVQLQQWGAGLLKPSETLSLACTVYGGSFSGYYWNWIRQPPGKGLEWIGEINHSGSTSYNPSLKSRVTISVDTSKNQFSLKLSSVTAADTAVYYCARVLYNWNVDSWGQGTLVTVSS
VL: DIQMTQSPSSLSASVGDRVTITCRASQDIRNDVGWYQQKPGKAPKRLIYAASRLQSGVPSRFSGSGSGTEFTLTISSLQPEDFATYYCLQHNSYPRTFGQGTKVEIK
B5: ZY0EOB-F05: anti-B7-H4 antibody clone, VH SEQ ID NO: 35, VL SEQ ID NO: 36 (antibody, V domains shown)
VH: QVQLQESGPGLVKPSQTLSLTCTVSDGSISSGGYYWSWIRQHPGKGLEWIGNIYYSGSTYYNPSLKSRVTISVDTSKNQFSLKLNSVTAADTAVYYCATEKALATVTPSGYENYYTVDVWGQGTTVTVSS
VL: DIQLTQSPSFLSASVGDRVTITCWASQGISSYLAWYQQKPGKAPKLLIYAASTLQSGVPSRFSGSGSGTEFTLTISSLQPEDFATYYCQHLNSYPLTFGGGTKVEIK
B6: ZY0E05-E07: anti-B7-H4 antibody clone, VH SEQ ID NO: 37, VL SEQ ID NO: 38 (antibody, V domains shown)
VH: QVQLQESGPGLVKPSQTLSLTCTVSGGSISSGGYYWSWIRQHPGKGLEWIGNIYYSGSTYYNPSLKSRVTISVDTSKNQFSLKLSSVTAADTAVYYCAREKALASVIPSGYENYYVVDVWGQGTTVTVSS
VL: DIQLTQSPSFLSASVGGRVTITCWASQGIAGYLAWYQQKPGKAPKLLIYAASTLQSGVPSRFSGSGSGTEFTLTISSLQPEDFATYYCQHLNSYPLTFGGGTKVEIK

Assays:
MurineB7-H4 = target: T1, MurineB7-H4; experiment: ForteBio Octet affinity; type: binding, murine
[1] = target: B7-H4-SV (splice variant); experiment: ForteBio Octet affinity
HumanB7-H4 = target: T2, HumanB7-H4; experiment: ForteBio Octet affinity; type: binding
monomeric B7-H4-FLAG = target: T3, monomeric B7-H4-FLAG; experiment: HTRF epitope binning; type: binding
Protocol: Epitope binning was performed in an HTRF assay format using the exemplary antibodies (IgG1-TM) conjugated with DyLight-649 binding to the monomeric B7-H4-FLAG LCD with detection with europium conjugated anti-FLAG antibody.
Bin 1 was defined with the ZY0EPQ-E02, ZY0EQD-E02 and ZY0E05-E07 antibodies fully inhibiting each other, and only partial inhibiting ZY0EP0-C07. Bin 2 was defined with the ZY0EOB-F05 antibody fully competing with all antibodies and all antibodies fully competing with it. Bin 3 was defined with ZY0EP0-C07 partially competing with antibodies ZY0EPQ-E02, ZY0EQD-E02 and ZY0E05-E07 (Bin 1).

OVCAR4 cells = experiment: On-cell western; type: cell-based, human
Protocol: (§1) The on-cell western method was developed and used to run 5 exemplary antibody clones with the following cells: SKBR3, A549, OVCAR4 (all minus transfections with B7-H4 vector), CHO and HEK cells (plus and minus transfection with full length B7-H4 vector).
(§2) Cells were detached from T175 flasks using Accutase and counted. Transfection method used was essentially that stated in the Invitrogen Lipofectamine LTX protocol (high throughput protocol using the reverse transfection method). 100 μl of cells (4.5×10^4 per 100 μl) was added to 96 well plates containing the DNA-lipofectamine mix. Plates incubated at 37° C. for 18 hours and fixed using 10% buffered formalin overnight. Plates were blocked with Odyssey blocking buffer, incubated with appropriate primary antibodies overnight followed by washing and detection with the appropriate Odyssey secondary antibody.
(§3) Plates were air dried and scanned using the Odyssey Imager using the recommended scan levels provided by the manufacturer.

[2] = system: SKBR3, A549, OVCAR4, CHO and HEK cells; experiment: On-cell western, panel of cell types; type: cell-based; settings: compared with control antibodies (lanes E, U, R, S)
Protocol: as §1, §2, §3

[3] = system: B7-H4 from human (including a splice variant), cynomolgus macaque, mouse and rat; experiment: Clone ZY0EQD_E02 specificity ELISA; type: binding; settings: Maia format mAbs
recombinant mouse B7-H4 = target: T4, recombinant mouse B7-H4; experiment: SPR affinity of Fab; type: binding
Protocol: The binding affinity of anti-B7-H4 antibody E02-INT Fab for recombinant human, cynomolgus monkey, and mouse B7-H4 variants were determined by surface plasmon resonance (SPR).

[4] = system: transfected HEKs (full length B7-H4 vector); experiment: On-cell western; type: cell-based
Protocol: as §1, §2, §3

[5] = system: transfected CHOs (full length B7-H4 vector); experiment: On-cell western; type: cell-based, Chinese hamster
Protocol: as §1, §2, §3

| Molecule | kdis (MurineB7-H4; hIgG1 (n = 1)) | kon (MurineB7-H4; hIgG1 (n = 1)) | kdis (MurineB7-H4; hIgG1-TM (n = 4-7)) | kon (MurineB7-H4; hIgG1-TM (n = 4-7)) | kdis (HumanB7-H4; hIgG1 (n = 1)) | kon (HumanB7-H4; hIgG1 (n = 1)) | kdis (HumanB7-H4; hIgG1-TM (n = 4-7)) | kon (HumanB7-H4; hIgG1-TM (n = 4-7)) | binding to OVCAR4 cells (OVCAR4 cells) | binding across cell types [2] | kdis ([1]; hIgG1 (n = 1)) | kon ([1]; hIgG1 (n = 1)) | kdis ([1]; hIgG1-TM (n = 4-7)) | kon ([1]; hIgG1-TM (n = 4-7)) | binding to transfected HEKs [4] | binding to transfected CHOs [5] | also measured |
| --- | --- | --- | --- | --- | --- | --- | --- | --- | --- | --- | --- | --- | --- | --- | --- | --- | --- |
| B1 | 0.000551 s⁻¹ | 60200 M⁻¹ s⁻¹ | 0.000524 s⁻¹ | 43000 M⁻¹ s⁻¹ | 0.000363 s⁻¹ | 48800 M⁻¹ s⁻¹ | 0.000397 s⁻¹ | 41600 M⁻¹ s⁻¹ | – | – | – | – | – | – | – | – | KD (nM) ([1]; hIgG1 (n = 1)): No Binding; KD (nM) ([1]; hIgG1-TM (n = 4-7)): No Binding; Octet KD (nM) ([1]; summary Table 14): No Binding; Epitope Bin (monomeric B7-H4-FLAG): Bin 3; Epitope Bin (monomeric B7-H4-FLAG; listed as ZY0EPO-C07): 3 |
| B2 | 0.213 s⁻¹ | 341000 M⁻¹ s⁻¹ | 0.126 s⁻¹ | 203000 M⁻¹ s⁻¹ | 0.00321 s⁻¹ | 216000 M⁻¹ s⁻¹ | 0.00278 s⁻¹ | 193000 M⁻¹ s⁻¹ | bind | bind a wide spectrum of cell types | 0.00349 s⁻¹ | 4190 M⁻¹ s⁻¹ | 0.00269 s⁻¹ | 3360 M⁻¹ s⁻¹ | – | – | binding profile to B7-H4 antigens [3]: binding to human, cynomolgus, mouse and rat B7-H4 |
| B3 | 0.0498 s⁻¹ | 100000 M⁻¹ s⁻¹ | 0.0304 s⁻¹ | 76700 M⁻¹ s⁻¹ | 0.00208 s⁻¹ | 85900 M⁻¹ s⁻¹ | 0.00182 s⁻¹ | 70900 M⁻¹ s⁻¹ | bind | bind a wide spectrum of cell types | 0.00252 s⁻¹ | 2460 M⁻¹ s⁻¹ | 0.00229 s⁻¹ | 1380 M⁻¹ s⁻¹ | – | – | – |
| B4 | – | – | – | – | – | – | – | – | – | – | – | – | – | – | – | – | fold lower affinity for mouse than for human B7-H4 antigen (recombinant mouse B7-H4): approximately 100 fold |
| B5 | 0.000493 s⁻¹ | 24900 M⁻¹ s⁻¹ | 0.000476 s⁻¹ | 18700 M⁻¹ s⁻¹ | 0.000362 s⁻¹ | 31000 M⁻¹ s⁻¹ | 0.000355 s⁻¹ | 26500 M⁻¹ s⁻¹ | bind | – | 0.000598 s⁻¹ | 4710 M⁻¹ s⁻¹ | 0.000584 s⁻¹ | 3350 M⁻¹ s⁻¹ | good results | bind | – |
| B6 | 0.000415 s⁻¹ | 17900 M⁻¹ s⁻¹ | 0.000361 s⁻¹ | 12100 M⁻¹ s⁻¹ | 0.000318 s⁻¹ | 21700 M⁻¹ s⁻¹ | 0.000338 s⁻¹ | 17100 M⁻¹ s⁻¹ | bind | – | 0.000528 s⁻¹ | 2910 M⁻¹ s⁻¹ | 0.000499 s⁻¹ | 1890 M⁻¹ s⁻¹ | good results | bind | – |
